How the values were obtained:
[1] = FITC-FA fluorescence microscopy of stable cell lines, 24 h; details: glycan lost; control: FOLR1 WT stable cells
[2] = qRT-PCR and label-free quantitative proteomics of FOLR1; details: glycan changed form; control: matched control stable cells

B1: folate receptor alpha (FOLR1): N69A (protein)
parent chain: MAQRMTTQLLLLLVWVAVVGEAQTRIAWARTELLNVCMNAKHHKEKPGPEDKLHEQCRPWRKNACCSTNTSQEAHKDVSYLYRFNWNHCGEMAPACKRHFIQDTCLYECSPNLGPWIQQVDQSWRKERVLNVPLCKEDCEQWWEDCRTSYTCKSNWHKGWNWTSGFNKCAVGAACQPFHFYFPTPTVLCNEIWTHSYKVSNYSRGSGRCIQMWFDPAQGNPNEEVARFYAAAMSGAGPWAAWPFLLSLALMLLWLLS
other: folate uptake [1]: decreases

B2: folate receptor alpha (FOLR1): FUT8 overexpression (protein)
parent chain: B1 parent chain
expression_or_secretion [2]: no change

B3: folate receptor alpha (FOLR1): N201A (protein)
parent chain: B1 parent chain
other: folate uptake [1]: decreases

B4: folate receptor alpha (FOLR1): N161A (protein)
parent chain: B1 parent chain
other: folate uptake [1]: decreases

B5: folate receptor alpha (FOLR1): shFUT8 (protein)
parent chain: B1 parent chain
expression_or_secretion [2]: no change
